Experimental findings from patent EP4524159A1, “ANTIBODY AND USE THEREOF” (Sichuan Huiyu Pharmaceutical Co., Ltd., priority 2022, dated 2023) are described below.

Series [1] is described as follows: Drug : antibody ratio (DAR) of antibody-vc-MMAE conjugates by hydrophobic HPLC. The conditions noted are these: for DAR: chimeric antibody-vc-MMAE conjugates; for DAR2 (%): share of DAR2 species; for DAR4 (%): share of DAR4 species; for DAR6 (%): share of DAR6 species; for DAR8 (%): share of DAR8 species. How it is done:
The specific operation was to reduce each antibody and the control antibody CD27H10 (27H10 antibody in WO2018112334A1) with a 2-fold molar amount of […] (TECP) at 4 °C for 1 hour. A 7-fold molar amount of vcMMAE was then added for ligation at 4-25 °C for 1 h, and then the reaction mixture was dialyzed against 1 × PBS pH 8.0 and filtered for sterilization. Drug : antibody ratio (DAR) was detected by hydrophobic kurtosis with HLPC, and the molecular coupling results are shown in Table 14. Table 14 DAR values of antibody-drug conjugates
The humanized antibodies 1CP-125, 1CP-117 and 1CP-152 were subjected to linking to form ADC, and the linking process was the same as in example 18. Table 18 DAR values of antibody-drug conjugates

Another series deals with HuCDCP1-C (human) (UniProt Q9H5V8). Nature of the series: ELISA, HuCDCP1-C coated 2 ug/ml.
The subject of a further series is MCF7. The series can be described thus: In vitro killing by chimeric antibody-vc-MMAE conjugate (CellTiter-Glo, 120 h). The series is classed as cell-based. The note with it: MCF7 (120 h), cells that do not express CDCP1. As for the experimental part: The inhibition activity of antibody on tumor cell growth was calculated by graphpad fitting based on the signal value and antibody concentration, and the results are shown in FIG. 5 and Table 15. Table 15 IC50 value of anti-CDCP1 chimeric antibody -vcMMAE conjugate on tumor cells

The target of a further series is T1, HuCDCP1-B (human) (UniProt Q9H5V8).
T1 sequence (looked up): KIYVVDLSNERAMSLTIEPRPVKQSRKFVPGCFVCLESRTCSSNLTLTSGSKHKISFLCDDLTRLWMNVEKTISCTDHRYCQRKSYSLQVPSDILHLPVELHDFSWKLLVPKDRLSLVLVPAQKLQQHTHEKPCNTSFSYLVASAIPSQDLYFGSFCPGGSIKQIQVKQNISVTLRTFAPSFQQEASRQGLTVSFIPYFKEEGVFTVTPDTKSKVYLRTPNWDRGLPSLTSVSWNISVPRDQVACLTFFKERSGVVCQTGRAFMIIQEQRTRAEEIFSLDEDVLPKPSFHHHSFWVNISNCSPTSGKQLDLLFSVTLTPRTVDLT
The series can be described thus: ELISA, HuCDCP1-B coated 2 ug/ml.

B1: 10D2-MMAE (conjugate)
VH: EVQLQQSGPELKKPGETVKISCKASGYTFTDYSMHWVKQAPGKGLKWMGWINTETGQPTYADDFKGRFAFSLETSASSAYLQINNLKNEDTATYFCTRTFYYDYVGDYWGQGTTVTVSS
VL: DIVMTQSHKFMSTSVGDRVSITCKASQDVSTAVAWYRQKPGQSPKLLIYWASTRHTGVPDRLTGSGSGTDFALTINSVQAEDLALYYCQQHSSTPYTFGGGTKLEIK
For the molecule B1, in series [1], the DAR came to 3.5, the “DAR2 (%)” value is 34.10%, the “DAR4 (%)” value was found to be 39.38% and the “DAR6 (%)” value stood at 10.24%. The “DAR8 (%)” value in series [1] is given as 8.00%.

B2: SB6 (antibody, V domains shown)
VH: QGQMQQSGAELVKPGASVKLSCKTSGFTFNSSYITWLKQKPGQSLEWIAWIFAGTGGTYYNEKFTDKAQLTVDTTSSTAYMQFSSLTTEDSAIYYCARHGLGYDYWGQGTTLTVSS
VL: SIVMTQTPKFLLVSAGDRVTITCKASQSVNTDVAWYQQKSGQSPKLLIYSASNRYTGVPDRFTGSGYGTDFTFTISTVQAEDLAVYFCQQDHSSPPWTFGGGTKLEIK
Take B2: the ELISA with HuCDCP1-C (human) worked out at 0.027 nM.

B3: SB7 (antibody, V domains shown)
VH: QVQLQQSGPELVSPGESVKISCKGSGYTFTDYAVHWVKQSHSKSLEWIGVKSVYYGITKYSQNFKDKATMTVDKSSSTAYMELARLTSEDSAIYYCARDSYGSSRGYFDYWGQGTTLTVSS
VL: DIKMTQSPSSIYVSPGERVTITCKASQDINSFLSWFQQKPGKSPKTLIYRANRLVDGVPSRFSGSGSGQDYSLTISSLEYEDMGIYYCLQYDEFPRTFGGGTKLEIK
In the case of B3, the ELISA with HuCDCP1-C (human) was found to be 0.034 nM.

B4: SB1 (antibody, V domains shown)
VH: QVQLQQSGPDLVRPGESVKISCKGSGYTFTDHAIHWVRQSHAKSLEWIGVISFSYDNTKYNQNFKGKATMTVDKSSNTAYMELARLTSEDSAIYYCARDCYGSNRGYFDYWGQGTTLTVSS
VL: DIRMTQSPSSMYASLGERVTITCKASQDINRFLSWFLQRPGKAPKTLIYRANNLVEGVPSRFSGSGSGQDYSLIISNLEYEDMGIYYCLQYDEFPRTFGGGTKLEIK
As to B4, the ELISA with HuCDCP1-C (human) was 0.092 nM.

B5: G10F6-MMAE (conjugate)
VH: EVKLVESGPGILQPSQTLSLTCSFSGFSLSTSGMGVSWVRQPSGKGLEWLAHIYWDDDKRYNPSLKGRLTISKDTPRNQVFLEITSVDTTDTATYYCARVPGNWDEDAMDYWGQGTTVTVSS
VL: DIQMTQSPLSLPVSLGDQASISCRSSQNIVHTNGNTYLEWYLQKVGQSPKLLIYKVSNRFSGVPDRFSGSGSGTDFTLKISRVEAEDLGVYYCFQGSHVPYTFGGGTKLEIK
In the case of B5, in series [1], the DAR is on record as 3.6, the “DAR2 (%)” value is listed as 32.59%, the “DAR4 (%)” value worked out at 35.66% and the “DAR6 (%)” value amounted to 12.02%. Besides, in series [1], the “DAR8 (%)” value was 10.04%. For the same molecule, the 50% inhibitory concentration (IC50) (in general, the midpoint of a concentration-inhibition curve) with MCF7 was > 200 nM.

B6: 6A7-MMAE (conjugate)
VH: EVQLKESGAELVRPGASVKVSCKASGYSFTSYWMNWVKQRPGQGLEWIGMIHPSDSETKLNQKFRDRASLTVDKSSSTAYMQLSSPTSEDSAVYYCTINYESFYYAMDYWGQGTTVTVSS
VL: DIVMTQSPASLAVSLGQRATISCRASKSVSTSGYSYMHWYQQKPGQPPKLLLYLASNLESGVPARFSGSGSGADFTLNIHPVEEEDAATYYCLHSRELPYTFGGGTKLEIK
As for B6, in series [1], the DAR was 3.6, the “DAR2 (%)” value came out at 24.99%, the “DAR4 (%)” value is 38.25% and the “DAR6 (%)” value was determined as 12.28%. The “DAR8 (%)” value in series [1] is given as 5.30%.

B7: SB5 (antibody, V domains shown)
VH: QVQLRESGPGLVAPSQSLSITCTVSGFSLTDFGVNWVRQPPGKGLEWLGIIWANGRIEYNSALKSRLSISKDNSRSQVFLKLNSLQTDDTARYYCARDHDYDVEAMDYWGQGTSVTVSA
VL: QIVLTQSPAIKSASPGEKVTMTCSASSSVIYMHWYQQKSGSSPKRWIYDTSKLASGVPVRFSGSGSGTSYSLTISTMEAEDAATYYCQQWSSYPPTFGGGTKVEIK
With B7, the results for the ELISA with HuCDCP1-B (human) and with HuCDCP1-C (human) were 0.208 nM and 0.413 nM, respectively.

B8: 3C11-MMAE (conjugate)
VH: EVQLQQSGTVLARPGASVKMSCKASGYNFISYWLHWIKQRPGQGLEWIGGIYPGNTDTTYNQKFKGKAKVTAVTSATTAYMELSSLTNEDSAVYYCIRYDYDRGMDYWGQGTTVTVSS
VL: DIQMTQSPSSFSVSLGDRVTITCRASEDIYYRLAWYQQKPGNAPRLLISGATALETGVPSRFSGSGSGKDYTLSITSLQTEDVATYYCQHYWNIPWTFGGGTKLEIK
Consider B8, for which, in series [1], the DAR was found to be 3.48, the “DAR2 (%)” value is on record as 33.89%, the “DAR4 (%)” value came to 28.50% and the “DAR6 (%)” value was found to be 8.28%. Moreover, the “DAR8 (%)” value in series [1] was determined as 9.09%.

B9: 3B 12H5-MMAE (conjugate)
VH: EVQLQQSGTVLARPGASVKMSCKASGYSFTIYWVHWVKQRPGQGLEWIGAVYPGNDDTSYNQNFKGKAKLTAVTSATTAYMELSSLTIDDSAVYYCTRHTYDEVFDYWGQGTTVTVSS
VL: DIVMTQSPSSLSVSLGDRVTITCKASEDIYYRLAWYQQKPGNAPRLLISGGTNLEAGIPSRFSGSGSGKDYTLSITSLQTEDVAIYYCQHYWNTPWTFGGGTKLEIK
On to B9, for which, in series [1], the DAR is given as 3.2, the “DAR2 (%)” value was 29.966%, the “DAR4 (%)” value turned out to be 37.81% and the “DAR6 (%)” value was 7.324%. The “DAR8 (%)” value in series [1] was 1.741%.

B10: SB4 (antibody, V domains shown)
VH: QVQLQQSGAELVRPGTSVKISCKASGYTFTNYWLGWVKQRPGHGLEWIGDNYPGDNYRNFNEKFKGKATLTTDASSSTAYLQLSSLISEDSAVYFCTRSGGSRYYTMDYWGQGTSVTVSS
VL: DIVMTQAAFSNPVTLGTSASISCRSSRSLLHNNGITYLYWYLQKPGQSPQLLIYQMSNLASGVPDRFHSSGSGTDFTLSISRVEAEDVGVYYCAQNLDLPYTFGGGTKLEIK
Turning to B10, in the series with HuCDCP1-C (human), the ELISA amounted to 0.071 nM.

B11: 8E5-MMAE (conjugate)
VH: EVQLKESGPELKKPGETVKISCKASGYTLTDFSMHWLKQAPGKGLKWMGWINTETGAPTYADDFKGRFALSLDTSANTAYLQINNLKNEDTATYFCSRGRDYDPHFDYWGQGTTVTVSS
VL: EIVLTQSPATLSVTPGDRVSLSCRASQSISDFLHWYQQRSHESPRLLIKYASQSISGIPSRFGGSGSGSDFTLNINTVEPEDVGMYYCQSAHSFPYTFGGGTKLEIK
Consider B11, for which, in series [1], the DAR was 3.65, the “DAR2 (%)” value was 32.01%, the “DAR4 (%)” value came to 37.12% and the “DAR6 (%)” value was determined as 11.15%. Further, the IC50 in the series with MCF7 was ~200 nM.
